Assays:
[1] = target: human SIRPα on hSIRPα-expressing cells (human) (UniProt P78324); experiment: flow cytometry, stably transfected CHO cells, antibody titrated, labelled anti-rat or anti-mouse IgG, MFI
[2] = target: human SIRPα on hSIRPα-expressing cells (human) (UniProt P78324); experiment: flow cytometry, stably transfected CHO cells, antibody titrated, labelled anti-human IgG, MFI

B1: Antibody 11 (antibody, V domains shown)
VH: EVQLVESGGGLVQPGGSLRLSCAASGFTFSSYWMHWVRQAPGKGLVWVSRIHNDGSRTSYADSVKGRFTISRDNAKNTLYLQMSSLRAEDTAVYYCTRDPPPYDILTGYPFDYWGQGTLVTVSS
VL: DIQMTQSPSSVSASVGDRVTITCRASQDISSWLAWFQQKPGKAPKLLIYGASSLQSGVPSRFSGSGSGTDFTLTISSLQPEDFATYYCQEANSFPYTFGQGTKLEIK
B1 showed an EC50 (read off the curve) [1] of 0.1 µg/mL.

B2: Antibody 28 (antibody, V domains shown)
VH: QVQLQESGPGLVKPSGTLSLTCAVSGGSISSSNWWSWVRQPPGKGLEWIGEIYHSGSTNYNPSLKSRVTISVDKSKNQFSLKLSSVTAADTAVYYCARRGIWFGVGPWGQGTLVTVSS
VL: DIVMTQSPLSLPVTPGEPASISCRSSQSLLHGNGFNYLDWYLQKPGQSPQLLIYLGSNRASGVPDRFTGSGSGTDFTLKISRVEAEDVGVYYCMQGLQTPRTFGQGTKVEIK
In the case of B2, the EC50 (read off the curve) [2] is reported as 0.2 µg/mL.

B3: Antibody 4 (antibody, V domains shown)
VH: QVQLQESGPGLLKPSETLSLTCAVSDYSISSGYYWGWIRQPPGKGLEWIGSIYHSGNTYYNPSLKSRVTILVDTSKNQFSLKLSSVTAADTAVYYCARDKCSTTTCSFDYWGQGTLVTVSS
VL: DIQMTQSPSSLSASVGDRVTITCQASQDFSNYLNWYQQKPGKAPKLLIYAASNLETGVPSRFSGSGSGTDFTFTISSLQPEDIAVYYCQQYDNLPYTFGQGTKLEIK
B3 showed an EC50 (read off the curve) [1] of 1 µg/mL.
